Data from patent US20240409635A1 (VIBRANT PHARMA, published 2024).
Positions count from the first letter of the chain named. One block for each binder: values may come before it.

Tests used:
[1] = target: epidermal growth factor receptor (EGFR) on human tumor cells (human, UniProt P00533 25-1210); test: cell-based or functional assay
[2] = target: T1, recombinant human protein CD3ε/δ (ACRO systems, CDD-H52W1) (human, UniProt P07766 23-126; P04234 22-105); test: BLI, antibody on AHC sensor, antigen as analyte
T1 construct: Bought heterodimer
T1 sequence (P07766 23-126, stated change not applied, chain 1 of 2): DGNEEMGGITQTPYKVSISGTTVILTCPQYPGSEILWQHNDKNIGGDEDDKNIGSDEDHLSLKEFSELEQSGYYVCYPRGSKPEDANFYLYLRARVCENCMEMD
T1 sequence (P04234 22-105, stated change not applied, chain 2 of 2): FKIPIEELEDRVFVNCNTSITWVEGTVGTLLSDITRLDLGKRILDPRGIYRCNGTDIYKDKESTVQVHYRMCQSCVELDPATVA
Protocol: (§1) Antibodies were first captured onto an anti-human IgG Fc coated AHC biosensor (Anti-hIgG Fc, Sartorius, 18-5060). Antibodies were diluted to 5 μg/mL and 1.5 nm protein was coupled to the AHC sensor surface in 0.02% PBST.
(§2) After the sensor captures the antibodies, it binds and dissociates with different concentrations of analytes to obtain the KD value of the interaction. The experimental parameters are as follows: Baseline1: 60 s, Loading: 240 s, Baseline2: 180 s, Association: 240 s, Dissociation: 600 s, High sensitivity kinetics: 2 Hz. Kinetic constants were derived based on the rate equation for 1:1 Langmuir binding to obtain equilibrium dissociation constants (KD). The Data Analysis HT 12 software (Sartorius, 50-5029) was used to simultaneously fit binding and dissociation curves to calculate Kₒₙ and Koff. The affinity KD was calculated based on the below formula: KD=Koff/Kₒₙ.

[3] = target: T2, recombinant human tumor antigen CEA (CEACAM-5/CD66e, ACRO systems, CE5-H5226) (human, UniProt P06731 35-685); test: BLI, antibody on AHC sensor, antigen as analyte
T2 construct: Bought
T2 sequence (looked up): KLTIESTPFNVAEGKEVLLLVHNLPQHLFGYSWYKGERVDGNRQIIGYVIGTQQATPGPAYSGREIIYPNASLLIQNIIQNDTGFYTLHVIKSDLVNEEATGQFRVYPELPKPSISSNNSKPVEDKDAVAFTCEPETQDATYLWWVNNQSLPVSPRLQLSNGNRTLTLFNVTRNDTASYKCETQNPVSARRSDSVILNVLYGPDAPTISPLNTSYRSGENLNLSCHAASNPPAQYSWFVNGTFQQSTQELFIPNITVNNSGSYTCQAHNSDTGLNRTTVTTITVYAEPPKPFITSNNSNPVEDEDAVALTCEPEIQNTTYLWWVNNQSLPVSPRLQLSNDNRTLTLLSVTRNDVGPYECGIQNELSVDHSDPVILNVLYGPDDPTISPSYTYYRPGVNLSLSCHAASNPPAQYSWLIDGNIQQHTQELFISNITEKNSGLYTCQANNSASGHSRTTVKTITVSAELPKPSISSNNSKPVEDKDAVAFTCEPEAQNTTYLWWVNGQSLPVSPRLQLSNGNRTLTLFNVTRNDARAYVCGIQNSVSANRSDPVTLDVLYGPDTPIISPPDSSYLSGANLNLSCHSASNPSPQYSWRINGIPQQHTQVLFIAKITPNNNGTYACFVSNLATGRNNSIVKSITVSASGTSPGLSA
Protocol: as §1, §2

[4] = target: T3, recombinant human tumor antigen HER2 (ERBB2, ACRO systems, HE2-H5212) (human, UniProt P04626 23-652); test: BLI, antibody on AHC sensor, antigen as analyte
T3 construct: Bought
Protocol: as §1, §2

[5] = target: T4, recombinant human CD3ε/δ protein (ACRO systems, CDD-H52W1) (human, UniProt P07766 23-126; P04234 22-105); test: BLI, antibody captured on AHC sensor
T4 construct: Bought reagent
T4 sequence (P07766 23-126, stated change not applied, chain 1 of 2): as the sequence (P07766 23-126, stated change not applied, chain 1 of 2) above
T4 sequence (P04234 22-105, stated change not applied, chain 2 of 2): as the sequence (P04234 22-105, stated change not applied, chain 2 of 2) above
Protocol: as §1
as §2, with “it is used to bind” for “it binds”, “and dissociate” for “and dissociates”, “calculate Kₒₙ,” for “calculate Kₒₙ”

B1: EGFR-BsAb bispecific control antibody (anti-CD3 TA1 Fab and EGFR VHH) (bispecific antibody, human IgG4 S228P, kappa, F234A L235A)
heavy: EVKLLESGGGLVQPKGSLKLSCAASGFTFNTYAMNWVRQAPGKGLEWVARIRSKYNNYATYYADSVKDRFTISRDDSQSILYLQMNNLKTEDTAMYYCVRHGNFGNSYVSWFAYWGQGTLVTVSSASTKGPSVFPLAPCSRSTSESTAALGCLVKDYFPEPVTVSWNSGALTSGVHTFPAVLQSSGLYSLSSVVTVPSSSLGTKTYTCNVDHKPSNTKVDKRVESKYGPPCPPCPAPEAAGGPSVFLFPPKPKDTLMISRTPEVTCVVVDVSQEDPEVQFNWYVDGVEVHNAKTKPREEQFNSTYRVVSVLTVLHQDWLNGKEYKCKVSNKGLPSSIEKTISKAKGQPREPQVYTLPPCQEEMTKNQVSLWCLVKGFYPSDIAVEWESNGQPENNYKTTPPVLDSDGSFFLYSRLTVDKSRWQEGNVFSCSVMHEALHNHYTQKSLSLSL
chain: QVQLQESGGGSVQAGGSLKLSCAASGRGFSRYAMGWFRQAPGQDREFVATISWTNSTDYADSVKGRFAISRDNAKNTAYLQMNSLKPEDTAVYYCAADKWASSTRSIDYDYWGQGIQVTVSSESKYGPPCPPCPAPEAAGGPSVFLFPPKPKDTLMISRTPEVTCVVVDVSQEDPEVQFNWYVDGVEVHNAKTKPREEQFNSTYRVVSVLTVLHQDWLNGKEYKCKVSNKGLPSSIEKTISKAKGQPREPQVCTLPPSQEEMTKNQVSLSCAVKGFYPSDIAVEWESNGQPENNYKTTPPVLDSDGSFFLVSRLTVDKSRWQEGNVFSCSVMHEALHNRFTQKSLSLSL
light: QAVVTQESALTTSPGETVTLTCRSSTGAVTTSNYANWVQEKPDHLFTGLIGGTNKRAPGVPARFSGSLIGDKAALTITGAQTEDEAIYFCALWYSNLWVFGGGTKVEIKRTVAAPSVFIFPPSDEQLKSGTASVVCLLNNFYPREAKVQWKVDNALQSGNSQESVTEQDSKDSTYSLSSTLTLSKADYEKHKVYACEVTHQGLSSPVTKSFNRGEC
T cell mediated killing EC50, H-1975 (EGFR+c-Met+) [1]: 0.32 pM | T cell mediated killing EC50, HT-29 (EGFR+c-Met+) [1]: 0.387 pM | T cell mediated killing EC50, OSRC2 (EGFR+++c-Met+) [1]: 2.45 pM | T cell mediated killing EC50, UT33A (EGFR+++c-Met+++) [1]: 0.398 pM | T cell mediated killing EC50, UT44 (EGFR+++c-Met++) [1]: 0.154 pM

B2: unilateral CD3/CEA/HER2 trispecific antibody 611 (other)
chain 1: QVQLVQSGGGLVQAGGSLRLSCAASGRTFSSYAMAWFRQAPGKEREFVAAISWSGANIYVADSVKGRFTISRDNAKDTVYLQMNSLKPEDTAVYYCAVKLGFAPVEERQYDYWGQGTQVTVSSGGGGSGGGGSEVKLLESGGGLVQPKGSLKLSCAASGFTFNTYAMNWVRQAPGKGLEWVARIRSKYNNYATYYADSVKDRFTISRDDSQSILYLQMNNLKTEDTAMYYCVRHGNFGNSYVSWFAYWGQGTLVTVSSASTKGPSVFPLAPCSRSTSESTAALGCLVKDYFPEPVTVSWNSGALTSGVHTFPAVLQSSGLYSLSSVVTVPSSSLGTKTYTCNVDHKPSNTKVDKRVESKYGPPCPPCPAPEAAGGPSVFLFPPKPKDTLMISRTPEVTCVVVDVSQEDPEVQFNWYVDGVEVHNAKTKPREEQFNSTYRVVSVLTVLHQDWLNGKEYKCKVSNKGLPSSIEKTISKAKGQPREPQVYTLPPCQEEMTKNQVSLWCLVKGFYPSDIAVEWESNGQPENNYKTTPPVLDSDGSFFLYSRLTVDKSRWQEGNVFSCSVMHEALHNHYTQKSLSLSL
chain 2: EVQLVESGGGFVQAGESLTLSCTSSTLTFTPYRMAWYRQAPGKQRDLVADISSGDGRTTNYADFAKGRFTISRDNIKNTVFLRMTNLKPEDTAVYYCNTFVSFVGIARSWGQGTQVTVSSESKYGPPCPPCPAPEAAGGPSVFLFPPKPKDTLMISRTPEVTCVVVDVSQEDPEVQFNWYVDGVEVHNAKTKPREEQFNSTYRVVSVLTVLHQDWLNGKEYKCKVSNKGLPSSIEKTISKAKGQPREPQVCTLPPSQEEMTKNQVSLSCAVKGFYPSDIAVEWESNGQPENNYKTTPPVLDSDGSFFLVSRLTVDKSRWQEGNVFSCSVMHEALHNRFTQKSLSLSL
chain 3: B1 light
Kd [2]: 1770 pM | koff [2]: 0.000727 s⁻¹ | kon [2]: 410000 M⁻¹ s⁻¹ | Kd [3]: 195 pM | koff [3]: 0.000108 s⁻¹ | kon [3]: 553000 M⁻¹ s⁻¹ | Kd [4]: 105000 pM | koff [4]: 0.0116 s⁻¹ | kon [4]: 111000 M⁻¹ s⁻¹

B5: HER2-BsAb (CD3 TA1-Fab x HER2 VHH bispecific control antibody) (bispecific antibody, human IgG4 S228P, kappa, F234A L235A)
heavy: B1 heavy
chain: QVQLVQSGGGLVQAGGSLRLSCAASGRTFSSYAMAWFRQAPGKEREFVAAISWSGANIYVADSVKGRFTISRDNAKDTVYLQMNSLKPEDTAVYYCAVKLGFAPVEERQYDYWGQGTQVTVSSESKYGPPCPPCPAPEAAGGPSVFLFPPKPKDTLMISRTPEVTCVVVDVSQEDPEVQFNWYVDGVEVHNAKTKPREEQFNSTYRVVSVLTVLHQDWLNGKEYKCKVSNKGLPSSIEKTISKAKGQPREPQVCTLPPSQEEMTKNQVSLSCAVKGFYPSDIAVEWESNGQPENNYKTTPPVLDSDGSFFLVSRLTVDKSRWQEGNVFSCSVMHEALHNRFTQKSLSLSL
light: B1 light
Kd [2]: 1510 pM | koff [2]: 0.000386 s⁻¹ | kon [2]: 256000 M⁻¹ s⁻¹ | koff [3]: 0.000391 s⁻¹ | kon [3]: 877000 M⁻¹ s⁻¹ | Kd [4]: 98400 pM | koff [4]: 0.0126 s⁻¹ | kon [4]: 128000 M⁻¹ s⁻¹

B6: CEA-BsAb bispecific control antibody (TA1-Fab CD3 x CEA VHH) (bispecific antibody, human IgG4 S228P, kappa, F234A L235A)
heavy: B1 heavy
chain: B2 chain 2
light: B1 light
Kd [5]: 491 pM | koff [5]: 0.000236 s⁻¹ | kon [5]: 481000 M⁻¹ s⁻¹

Results, then the binder that gave them:

Kd [2]: 1770 pM | koff [2]: 0.000682 s⁻¹ | kon [2]: 386000 M⁻¹ s⁻¹ | Kd [3]: 193 pM | koff [3]: 0.000105 s⁻¹ | kon [3]: 542000 M⁻¹ s⁻¹ | Kd [4]: 108000 pM | koff [4]: 0.0122 s⁻¹ | kon [4]: 113000 M⁻¹ s⁻¹
B3: unilateral CD3/CEA/HER2 trispecific antibody 612 (other)
chain 1: B2 chain 2 with C251Y, S256C, S268W, A270L, V309Y, R337H, F338Y
chain 2: B2 chain 1 with Y487C, C492S, W504S, L506A, Y545V, H573R, Y574F
chain 3: B1 light

Kd [2]: 1470 pM | koff [2]: 0.000402 s⁻¹ | kon [2]: 273000 M⁻¹ s⁻¹ | Kd [3]: 153 pM | koff [3]: 8.05e-05 s⁻¹ | kon [3]: 525000 M⁻¹ s⁻¹ | Kd [4]: 53500 pM | koff [4]: 0.00914 s⁻¹ | kon [4]: 171000 M⁻¹ s⁻¹
B4: unilateral CD3/CEA/HER2 trispecific antibody 610 (other)
chain 1: B2 chain 2 with C251Y, S256C, S268W, A270L, V309Y, R337H, F338Y
chain 2: B1 heavy with Y354C, C359S, W371S, L373A, Y412V, H440R, Y441F
chain 3: QVQLVQSGGGLVQAGGSLRLSCAASGRTFSSYAMAWFRQAPGKEREFVAAISWSGANIYVADSVKGRFTISRDNAKDTVYLQMNSLKPEDTAVYYCAVKLGFAPVEERQYDYWGQGTQVTVSSGGGGSGGGGSQAVVTQESALTTSPGETVTLTCRSSTGAVTTSNYANWVQEKPDHLFTGLIGGTNKRAPGVPARFSGSLIGDKAALTITGAQTEDEAIYFCALWYSNLWVFGGGTKVEIKRTVAAPSVFIFPPSDEQLKSGTASVVCLLNNFYPREAKVQWKVDNALQSGNSQESVTEQDSKDSTYSLSSTLTLSKADYEKHKVYACEVTHQGLSSPVTKSFNRGEC
